Experiment: yeast display, Sf9 membrane polyspecificity reagent, FACS + sequencing; frameworks hold sequencing errors
Summary of the method: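 A nanobody's polyreactivity label depends on the gate it was sorted from. Yeast display cells were stained with 10% biotinylated, detergent-solubilized Sf9 membrane reagent for 1 hour at 4 °C, enriched on streptavidin microbeads and sorted by FACS. The low and high (top ~1%) gates were set on anti-HA fluorescence for expression and streptavidin fluorescence for reagent binding.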

QVQLVESGGGLVQAGGSLRLSCAASGITFYYYAMGWYRQAPGKERELVASISSVGSTYYADSVKGRFTISRDNAKNTVYLQMNSLKPEDTAVYYCAAVDYVRYYPDEFDYWGQGTQVTVSS
polyreactivity (PSR sort gate): low polyreactivity

QVQLVESGGGLVQAGGSLRLSCAASGNTFVPYAMGWYIQAPRKEREFVAAISSTSGSTYYADSVKGRITISRDNAKNTVYLQMNSLKPEDTAVYYCATKRPYSSKRYKYWKVDYWGQGTQVTVSS
polyreactivity (PSR sort gate): high polyreactivity

QVQLVESGGGLVQAGGSLRLSCAASGFIFSSYAMGWYRQAPGKERELVAAITSRGGSTYYADSVKGRFTISRDNAKNTVYLQMNSLKPEDTAVYYCNAVVTKYAKSRFLYYYWGQGTQVTVSS
polyreactivity (PSR sort gate): high polyreactivity

QVQLVESGGCLVQARGSLRLSCASSGSTFGRNAMGWYRQAPGKERELVASISRRGGSTYYADSVKGRFTISRDNAKNTVYLQMNSLKPEDTAVYYCNRVQFSPVYRFREYDYWGQGTQVTVSS
polyreactivity (PSR sort gate): high polyreactivity

QVQLVESGGGLVQAGGSLRLSCAASGSTFVKYAMGWYRQAPGKERELVARISSSGGSTYYADSVKGRFTISRDNAKNTVYLQMNSLKPEDTAVYYCAAPSLIAKYDYWGQGTQVTVSS
polyreactivity (PSR sort gate): high polyreactivity

QVQLVESGGGLVPAGGSLRLSCPAGGFIFGSNVMGWYRQAPGKEREFVAAITYGGVSTYYADSVKGRFTISRDNAKNTVYLQMNSLKPEDTAVYYCNTDRGKRLGKQASSKRYDYWGQGTQVTVSS
polyreactivity (PSR sort gate): high polyreactivity

QVQLVESGGGLVQAGGSLRLSCAASGSTFFLYAMGWYRQAPGKERELVAAITYTDGDTYYADSVKGRFTISRDNAKNTVYLQMNSLKPEDTAVFYCNAGGDEPVYGSGYDYWGQGTQVTVSS
polyreactivity (PSR sort gate): low polyreactivity

QVQLVESGGGLVQAGGSLRLSCAASGSTFYLNAMGWYRQAPGKERELVAAISSGGRTYYADSVKGRFTISRDNAKNTVYLQMNSLKPEDTAVYYCNAVRYLRGAYNYWGQGTQVTVSS
polyreactivity (PSR sort gate): high polyreactivity

QVQLVESGVGLVQAGGSLGLTCAASGSIFYRYTMGWYREAPGKERELVAAISSDGDSTYYADSVKGRFTISRDNAKNTVYLQMNSLKPEDTAVYYCAADLEPYIGYHFYYWGQGTQVTVSS
polyreactivity (PSR sort gate): low polyreactivity

QVQLVESAGGFVQAGGSLRLSCAASGLTFYYYAMGWYRQAPGTERELVAAFSTRGTSTYYADSVKGRFTISRDNAKKTVYLQMNSQKPEDTAVYYCAADSYPWGTGGDYWGQGTQVTVSS
polyreactivity (PSR sort gate): high polyreactivity

QVQLVESGGALVQAGGSLRFSCASSGRIFSSNTMGWYRQAPGKERELVAAISRGSITYYAHSVKGRFTISRDNAKNTVYLQMNSLKPEDTAVYYCAAGVGLDNYGYGYWGQGTQVTVSS
polyreactivity (PSR sort gate): low polyreactivity

QVQLVESGGGLVQAGGSLRLSCAASGFTFKFYAMGWYRQAPGKEREFVAAISHSGGRTYYADSVKGRFTISSDNAKNTVYLQLNILKPEDTAFYYCAAAEGGGLVTYDYWGQGTQVTVSS
polyreactivity (PSR sort gate): low polyreactivity

QVQLVESGGGLVQAGGSLRLICAASGFIIYSYAMGWYRQAPGKERELVAGITSDGRTYYADSVKGRFTISRDNAKNTVYLQMNSQKPEDTAVSYCAARYYLFYRVSPYYYWGQGTQVTVSS
polyreactivity (PSR sort gate): low polyreactivity

QVQLVESGGRLVQAGGSLRLSCAASGYIFSRNAMGSYRQAPGKERELVATISRGGSTYYGDSVKGRFTISRDNDKNTVYLQMNSLKPEDTAVYFCAATVVYWRSKSSVRRYDYWGQGTQVTVSS
polyreactivity (PSR sort gate): high polyreactivity

QVQLVESGGGLVQAGGSLRLSCAASGSIFTWYAMGWYRQAPGKERELVAAITRGGSTYADSVKGRFTISRDNAKYTVYLQMNSLKPEDTAVYYCNAVYGVYDFNYWGQGTQVTVSS
polyreactivity (PSR sort gate): low polyreactivity

QVQLVESGGGLLQAGGSLRLSCAASGRTFRYYTMGWYRQAPGKEREFVAAISSTGRTYYGDSVKGRFTISRDNAKNTVYLQMNSLKPEDTAVYYCAATFIQVVVNVQLYDYDYWGQGTQVTVSS
polyreactivity (PSR sort gate): low polyreactivity

QVQHVESGGGLVQAGGSLRLSCAASGRIFVYYALGWYRQAPGKERELVASISYSGASTYYADSVKGRFTISRDNAKNTVYLQMNSLKPEDTAVYYCNTDGDDFFHVIYDYWGQGTQVTVSS
polyreactivity (PSR sort gate): low polyreactivity

QVQLVESGGVLVQSGGSLRLSCAASGFIFYDYAMGWYRQAPGKEREMVAAITSGGSTYYADSVKGRFTISRDNAKNTVYLQMKSLKPEDTAVYYCAADAYNLDDDTYDYWGQGTIVTVSS
polyreactivity (PSR sort gate): low polyreactivity

QVQLVESGGGLVQAGGSLRLSCAASGSTFPPYAMGWYRKATGNERELVADISSGVSTNYADSVNGRFTISRDNAKNTVYLQMHSLKPEDTAVYYCAADVYHYEWWYFSEFDYWGLGTQVTVSS
polyreactivity (PSR sort gate): low polyreactivity

QVQLVESGGGLVQAGGSLRLSCAAYGSIFYFNAMGRYRQAPGKERELVASITSGGSTNYADSVKGRFTISRDNAKNTVYLQMNSLKPEETEVYYCNARFPYLSRWLVRGLASYDYWGQGTQVTVSS
polyreactivity (PSR sort gate): low polyreactivity

QVQLVESGGGLVQAGGSLRLSCAASGSIFDSYVMGWYRQAPGKERELVAAITYSGGSTYADSVMGRFTISRDNAKNTVYLQMNSVKPEDTAVYYCAAASYFYLYLLEDYWGQGTQVTVSS
polyreactivity (PSR sort gate): low polyreactivity

QVQLVESGGGLVKAGGSLRLSCAASGRTFRFYAMGWYRQAPGKEREFVAAISRSVGSTYYADSVKGRFTISRDNAKNTVYLQMNSLKPEDTAVYYCNADYRSRYVEYDYWGQGTQVTVSS
polyreactivity (PSR sort gate): high polyreactivity

QVQLVESGGGLVQAGGSLRLSCAASGRTFCTNAMGWYRQAPGKERELVAVISGSTGSTYYADSVKGRFTISRDNAKNTVYLQMNSLKPEDTAVYYCAASYRNTGRWSYRGDYWGQGTQVTVSS
polyreactivity (PSR sort gate): high polyreactivity

QVQLVESGGGLVQAGGSLRLSCAASGRTIEQYDMGWYRQAPGKDRELVAAISWRGGGTYYADSVKGRFTISRDNAKNTVYLQMNSLKPEDTAVYYCAKKSHTTDEGYDYWGQGTQVTVSS
polyreactivity (PSR sort gate): low polyreactivity

QVQLVESGGGLVQAGGSLRLSCAASGFTFYRYAMGWYRQAPGKERELVAAITKSSGRTYYADSVKGRFTISRDNAQITVYLQINSLKPEDTAVYYCNAYYVALPPNMDYWGQGTQVTVSS
polyreactivity (PSR sort gate): high polyreactivity

QVQLVESGGGLVQAGGSLRLSCAASGRTFYYYTMGWYRPAPGKERELVAAISSTGNTYYADSVKGRFTISRDNAKNTVYLQMNSLKPEDTAVYYCAALRYVNLLAQAYEYWGQGTQVTVSS
polyreactivity (PSR sort gate): high polyreactivity

QVQLVESGGGLVQAGGSLRLSCAASGSTFNYYAMGWYRQAPGKERELVAAISSRSSRTFYADSVKGRFTISRDNEKNTVYLQMNSLKPEDTAVYYCAVKKRAPDGDYWGQGTQVTVSS
polyreactivity (PSR sort gate): high polyreactivity

QVQLVESGGGLVHAGGSLRLSCAASGFTFIRYAMGWYRQAPGKERELVAAIRGTGTSTYYADSVKGRFTISRDNAKNTVYFQMNSLKPEDTAVYYCAAVHWWSSSLGMYYWGQGSQVTVSS
polyreactivity (PSR sort gate): low polyreactivity

QVQRVESGGGLVQEGRSLRLSCAASGFIFSVYAMGWYRQAQGKERELVAAMTWNGGRTYYADSVKGRFRISRDHAKNTVYLQMNSVKPEDTAVYYCAADSRGALNSVYRYGSIVEGDYWGQGTQVTVSS
polyreactivity (PSR sort gate): low polyreactivity

QVQLVESGGGLVQAGGSLRLSCAASGITFRVNTMGWYRKAPGKETEFVATISYSGDSTYYADSVKGRFTISRDNAKNTVYLQMNSLKPEDTAVYYCATELVFYGRDYWGQGTQVTVSS
polyreactivity (PSR sort gate): low polyreactivity

QVQLVESGGGLVPAGGSLRLSCAASGSIFKINAMGWYRQAPGKERELVATITWSTGTTYYADSVKGRFTISRDNAKNTVYLQMNSLKPEDTAVYYCATDGDSTKLDYWGQGTQVTVSS
polyreactivity (PSR sort gate): low polyreactivity

QVQLVESGGGLVQAGVSLRLSCAASGRTLRRTAMGWYRQAPGTERELVAAISSIGGSTYYADSVKGRFTISRDNAKITVYLQMNSLKPEDTAVYYCAADILIYPYSYDYYWGQGTQVTVSS
polyreactivity (PSR sort gate): high polyreactivity

QVQLVESGGGLVQAGGTLRLSCAASGFTFLDYAMGWYRQAPGKERELVATINWSDVSTYYADSVKGRFTISRDTAKNTVYLQINSLKPEDTAVYYSAVDVLTVGQSNDHWGQGTQVTVSS
polyreactivity (PSR sort gate): high polyreactivity

QVQLVESGGGLVQAGGSLRLSCAASGRTFNVYAMGWYRQAPGKERELVAAISKSGGSTYYADSVKGRFTISRDNAKNTVYLQMTSLKPEDTAVYYCNRYRFVRQVRGGGLPYDYWGQGTQVTVSS
polyreactivity (PSR sort gate): high polyreactivity

QVQLVESGGGLVQAGGSLRLSCAASGITFFENAMGWYRQAPGKERELVASISSSGGSTYYADSVKGRFTISRDNAKNTVYLQMNSLKPEDTAVYYCAARYYSQKSYIGFRPGYEYWGQGTQVTVSS
polyreactivity (PSR sort gate): low polyreactivity

QVQLVESGGGLVQAGGSLRLSCAASGSISPQNVMGWYRQAPGKERELVAAITGGGSTNYADSVKGRFTISRDNAKNTVYLQMNSLKPEDTAVYYCNADYFQDRLDYWGHGTQVTVSS
polyreactivity (PSR sort gate): low polyreactivity

QVQLVESGGGLVQAGGSLRLSCAASGYTFRYYAMGWYRQAPGKERELVARITGRAGSTYYADSVKGRFTISRDNAKNTVYLQMNSLKPEDTAVYYSAASIREGFYWGQGTQVTVSS
polyreactivity (PSR sort gate): high polyreactivity

QVQLEESAGRLVQAGGSLRLSCAASGFIISPYAMGWYRQAPGKERELVAAISWSGVYTYYADTVKGRFTISRDNAKNTVYLQMNSLKPEDSAVYYCATYGTVYYWGQGTQVTVST
polyreactivity (PSR sort gate): high polyreactivity

QVQLVESGGGLVQAGGSLRLSCAASGRIFYYYAMGWYRQAPGKERELVAAITRRGGSTYYADSVKGRFTISRDNAKNTVYLQLNSLKPEDTAVYYCAKPDRTGWLDGDYWGQGTQVTVSS
polyreactivity (PSR sort gate): low polyreactivity

QVQLVESGGGLVQAGGSLRLSCAASGRIFGFYAMGWYRPAPGKERELVARITLSGGRTYYADSVKGRFTISRDNAKNTVYLQMNSLKPEDTAVYYCAADSIGRLWGYGYWGQGTQVTVSS
polyreactivity (PSR sort gate): high polyreactivity

QVQVVESGGGLVQAGGSLRLSCAASGSIFRDNAMGCYRQAPGKERELVASIRSSGGRTYYADSVKGRFTISRDNAKNTVYLQMNSLKPEDTAVYYCARRWYPVTPYARMYYWGQGTQVTVSS
polyreactivity (PSR sort gate): low polyreactivity

QVQLVESGGGLVQAGGSVRLSCGASGRSFQRYALGWYRQAPGTERELVAAIRWSGGATYGDSVKGRFTISRDNAKNTVYLQMNSLQPEDTAVYYCAAVDRRDPYYPKYNYWGQGTQVTVSS
polyreactivity (PSR sort gate): high polyreactivity

QVQLGDSGGGLVQAGGSLRLSCAASGSIFVGYAMGWYRQAPGKERELVAAISWSGDSTYYAVSVKGRFTMSRDNAKNTVYLQMNSLKPEDTAVYYCAVDYAENGPRREVEYDYWGQGTQVTVSS
polyreactivity (PSR sort gate): low polyreactivity

Source: the nanobody polyreactivity screen of Harvey et al. (2022)
